Laboratory results as given in publication PMC9482650, “Quantitative fragmentomics allow affinity mapping of interactomes” (Nature Communications, 2022).

Tests used:
Assay in all cases: holdup assay
Set-up in all cases: key: below the threshold = too weak to quantify, mostly under pKd 3.1 to 4
Conditions in all cases: plain residues with an end cap or a label only (N-terminal biotin on a linker: ado-ado)
RHPN1, Q8TCX5 = target: T1, RHPN1, Q8TCX5
T1 sequence (Q8TCX5 508-602, limits assumed, looked up): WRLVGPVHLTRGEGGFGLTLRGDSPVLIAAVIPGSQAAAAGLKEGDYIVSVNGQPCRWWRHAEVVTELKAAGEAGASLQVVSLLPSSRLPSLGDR

SCRIB_3, Q14160 = target: SCRIB_3, Q14160
SCRIB_3, Q14160, sequence (Q14160 999-1103): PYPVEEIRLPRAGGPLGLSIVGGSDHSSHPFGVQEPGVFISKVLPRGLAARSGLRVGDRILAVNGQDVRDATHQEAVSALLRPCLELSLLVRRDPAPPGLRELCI

GORASP2, Q9H8Y8 = target: GORASP2, Q9H8Y8
IL16_1, Q14005 = target: IL16_1, Q14005
IL16_1, Q14005, sequence (Q14005 210-306): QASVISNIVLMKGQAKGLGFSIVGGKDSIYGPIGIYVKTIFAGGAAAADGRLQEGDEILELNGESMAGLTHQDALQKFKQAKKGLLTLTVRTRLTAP

NHERF4_4, Q86UT5 = target: NHERF4_4, Q86UT5
NHERF4_4, Q86UT5, sequence (Q86UT5 464-550): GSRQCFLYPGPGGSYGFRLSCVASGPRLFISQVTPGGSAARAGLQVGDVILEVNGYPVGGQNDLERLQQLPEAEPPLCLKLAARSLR

SCRIB_1, Q14160 = target: SCRIB_1, Q14160
SCRIB_1, Q14160, sequence (Q14160 718-814): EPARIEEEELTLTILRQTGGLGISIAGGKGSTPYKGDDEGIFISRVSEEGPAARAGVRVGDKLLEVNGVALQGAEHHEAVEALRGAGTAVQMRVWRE

PDLIM1, O00151 = target: PDLIM1, O00151
PDLIM1, O00151, sequence (O00151 1-87): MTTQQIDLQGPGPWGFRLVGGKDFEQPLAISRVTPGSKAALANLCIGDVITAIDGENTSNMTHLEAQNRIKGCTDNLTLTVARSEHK

MPDZ_5, O75970 = target: T2, MPDZ_5, O75970
T2 sequence (O75970 695-796, limits assumed, looked up): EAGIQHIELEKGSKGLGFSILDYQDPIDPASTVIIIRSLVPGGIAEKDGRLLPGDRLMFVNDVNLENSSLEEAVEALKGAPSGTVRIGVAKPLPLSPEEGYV

GRIP2_6, Q9C0E4 = target: GRIP2_6, Q9C0E4
GRIP2_6, Q9C0E4, sequence (Q9C0E4 648-740): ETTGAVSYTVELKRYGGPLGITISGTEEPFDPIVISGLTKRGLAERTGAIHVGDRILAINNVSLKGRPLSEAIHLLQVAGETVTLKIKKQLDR

NHERF4_1, Q86UT5-2 = target: NHERF4_1, Q86UT5-2
NHERF4_1, Q86UT5-2, sequence (Q86UT5 other isoform, or with tags, fused parts or gaps): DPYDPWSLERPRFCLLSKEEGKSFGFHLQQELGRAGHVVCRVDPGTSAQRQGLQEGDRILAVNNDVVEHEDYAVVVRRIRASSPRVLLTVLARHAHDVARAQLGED

Inadl_3, Q8NI35 = target: Inadl_3, Q8NI35
Inadl_3, Q8NI35, sequence (Q8NI35 359-469): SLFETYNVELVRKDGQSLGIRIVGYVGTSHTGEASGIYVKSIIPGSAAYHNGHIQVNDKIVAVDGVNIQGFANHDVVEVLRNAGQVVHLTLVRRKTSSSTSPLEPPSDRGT

Inadl_4, Q8NI35 = target: Inadl_4, Q8NI35
Inadl_4, Q8NI35, sequence (Q8NI35 547-651): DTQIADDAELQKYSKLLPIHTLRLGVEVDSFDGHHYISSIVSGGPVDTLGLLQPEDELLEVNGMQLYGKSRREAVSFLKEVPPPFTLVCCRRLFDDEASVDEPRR

DFNB31_2, Q9P202 = target: T3, DFNB31_2, Q9P202
T3 sequence (Q9P202 274-371, limits assumed, looked up): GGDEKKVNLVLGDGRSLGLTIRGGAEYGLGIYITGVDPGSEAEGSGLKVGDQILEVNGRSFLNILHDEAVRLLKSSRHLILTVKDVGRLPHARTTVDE

FRMPD2_2, Q68DX3 = target: FRMPD2_2, Q68DX3
FRMPD2_2, Q68DX3, sequence (Q68DX3 944-1038): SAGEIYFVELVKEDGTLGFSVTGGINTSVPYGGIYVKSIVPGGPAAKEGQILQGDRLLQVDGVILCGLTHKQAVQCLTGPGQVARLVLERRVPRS

TJP1_2, Q07157 = target: TJP1_2, Q07157
TJP1_2, Q07157, sequence (Q07157 181-274): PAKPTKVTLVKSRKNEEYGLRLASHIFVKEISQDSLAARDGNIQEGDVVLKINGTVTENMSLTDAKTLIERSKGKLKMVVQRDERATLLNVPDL

GORASP1, Q9BQQ3 = target: GORASP1, Q9BQQ3
GORASP1, Q9BQQ3, sequence (Q9BQQ3 1-208): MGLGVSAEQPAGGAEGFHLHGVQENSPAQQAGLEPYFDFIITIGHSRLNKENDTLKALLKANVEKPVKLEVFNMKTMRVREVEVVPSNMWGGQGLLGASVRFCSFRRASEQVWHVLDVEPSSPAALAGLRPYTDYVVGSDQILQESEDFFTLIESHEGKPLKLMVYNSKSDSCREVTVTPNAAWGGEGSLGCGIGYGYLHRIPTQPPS

PDZRN3_1, Q9UPQ7 = target: T4, PDZRN3_1, Q9UPQ7
T4 sequence (Q9UPQ7 244-349, limits assumed, looked up): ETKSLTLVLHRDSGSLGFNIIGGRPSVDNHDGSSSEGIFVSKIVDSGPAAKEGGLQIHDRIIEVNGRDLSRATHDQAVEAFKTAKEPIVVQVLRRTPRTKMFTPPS

LRRC7, Q96NW7 = target: T5, LRRC7, Q96NW7
T5 sequence (Q96NW7 1440-1537, limits assumed, looked up): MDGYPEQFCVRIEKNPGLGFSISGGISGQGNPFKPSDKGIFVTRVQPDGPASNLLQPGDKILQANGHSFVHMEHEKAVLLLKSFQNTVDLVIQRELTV

DLG2_3, Q15700 = target: DLG2_3, Q15700
DLG4_1, P78352 = target: DLG4_1, P78352
DLG4_1, P78352, sequence (P78352 62-152): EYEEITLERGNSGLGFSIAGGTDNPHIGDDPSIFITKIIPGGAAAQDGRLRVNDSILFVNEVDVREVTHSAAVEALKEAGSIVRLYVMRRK

MPDZ_10, O75970 = target: T6, MPDZ_10, O75970
T6 sequence (O75970 1624-1722, limits assumed, looked up): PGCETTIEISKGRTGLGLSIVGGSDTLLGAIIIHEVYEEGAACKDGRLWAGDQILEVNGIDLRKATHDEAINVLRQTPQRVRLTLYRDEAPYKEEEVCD

SNTB1, Q13884 = target: T7, SNTB1, Q13884
T7 sequence (Q13884 107-205, limits assumed, looked up): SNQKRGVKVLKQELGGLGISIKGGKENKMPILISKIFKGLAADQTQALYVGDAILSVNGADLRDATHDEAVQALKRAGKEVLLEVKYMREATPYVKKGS

Inadl_1, Q8NI35 = target: Inadl_1, Q8NI35
Inadl_1, Q8NI35, sequence (Q8NI35 113-229): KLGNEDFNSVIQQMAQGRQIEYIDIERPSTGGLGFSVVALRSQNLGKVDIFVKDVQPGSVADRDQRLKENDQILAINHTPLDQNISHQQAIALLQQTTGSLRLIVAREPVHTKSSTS

HTRA3, P83110 = target: T8, HTRA3, P83110
T8 sequence (P83110 354-453, limits assumed, looked up): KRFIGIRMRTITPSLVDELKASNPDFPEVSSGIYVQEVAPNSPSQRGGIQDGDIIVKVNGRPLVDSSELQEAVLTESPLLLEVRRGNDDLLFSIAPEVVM

MPP7, Q5T2T1 = target: T9, MPP7, Q5T2T1
T9 sequence (Q5T2T1 134-230, limits assumed, looked up): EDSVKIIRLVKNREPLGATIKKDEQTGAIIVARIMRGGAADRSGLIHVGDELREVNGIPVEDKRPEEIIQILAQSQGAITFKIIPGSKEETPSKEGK

FRMPD1, Q5SYB0 = target: T10, FRMPD1, Q5SYB0
T10 sequence (Q5SYB0 52-145, limits assumed, looked up): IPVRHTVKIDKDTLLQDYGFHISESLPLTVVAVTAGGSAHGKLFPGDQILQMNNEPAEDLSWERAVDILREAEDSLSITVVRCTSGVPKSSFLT

ARHGAP21, Q5T5U3 = target: T11, ARHGAP21, Q5T5U3
T11 sequence (Q5T5U3 45-169, limits assumed, looked up): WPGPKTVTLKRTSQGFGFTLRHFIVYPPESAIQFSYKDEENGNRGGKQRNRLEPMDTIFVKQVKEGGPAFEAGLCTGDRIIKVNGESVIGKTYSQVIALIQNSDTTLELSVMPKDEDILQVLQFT

Measured: pKd

HDDYFYHDEL [RCN2, Q14257]
3.83: PDLIM1, O00151
3.85: Inadl_3, Q8NI35
3.54: DLG4_1, P78352
4.1: NHERF4_1, Q86UT5-2
4.17: ARHGAP21, Q5T5U3
3.81: SCRIB_3, Q14160
below the threshold: all other assays above

PSDSVGKDVF [EGLN1, Q9GZT9]
3.47: ARHGAP21, Q5T5U3
3.57: DLG2_3, Q15700
below the threshold: all other assays above

KAEEKPPSKV [SCN4B, Q8IWT1]
3.71: MPDZ_10, O75970
below the threshold: all other assays above

QKNKDREYYV [NRXN3, Q9HDB5]
4.33: GORASP1, Q9BQQ3
3.57: TJP1_2, Q07157
4.92: MPP7, Q5T2T1
3.69: Inadl_1, Q8NI35
4.2: ARHGAP21, Q5T5U3
4.14: Inadl_3, Q8NI35
4.84: HTRA3, P83110
4.27: GRIP2_6, Q9C0E4
4.67: GORASP2, Q9H8Y8
3.72: IL16_1, Q14005
3.78: FRMPD2_2, Q68DX3
4.71: MPDZ_5, O75970
3.65: SNTB1, Q13884
below the threshold: all other assays above

THREVKFTSL [CD46, P15529]
4.8: SCRIB_3, Q14160
4.27: PDZRN3_1, Q9UPQ7
4.28: NHERF4_1, Q86UT5-2 | DFNB31_2, Q9P202
4.86: SNTB1, Q13884
4.95: SCRIB_1, Q14160
4.48: RHPN1, Q8TCX5
3.98: GRIP2_6, Q9C0E4
4.38: DLG2_3, Q15700
below the threshold: all other assays above
